Experimental findings from a protein production outcome set (Wang et al. 2014) are described below.

This series is described as follows: label from the status in PepcDB records.
“MLTEVSDTRIAHKKFGLFYPSVSRPSIFVEGEDRKNFLQGIASQDILKQDEKSLSYSFFLNPKARILFDAWCGNFEDKIALFPPAGTREEFVNHLKKYLFFRTKAKITDMSDHFREIRLVGPETISVLLSLFDNNFSGSSFRMLKNGGYVLIHPTSFQHNLDVGLQADLFIPIDQFETTQKSLEDFTSNKGGVLLDESSYLAYLTEKGIPLFPSELNDSFFPAEAGLDSVGVSYNKGCYVGQEPVTRLKFQGHLNRSLAGFRLEGGPFPKMEFPVTLFNPKDGNEAGILTRTSSSDILGSGIGLGYIKRNFSENGTELLLPDAQLVRVHSLPFV”: the protein production result is “not failed”.

For “MERVGTPEEERQAGPVLPTSLESDSSKRTSWGFLITGVVGGALLTVYAVATPFITPALRKVCLPFVPATSKQVENVVRMLRHRRGPLVDIGSGDGRIVIAAAKEGFPAVGYELNPWLVWYSRYRAWRAGVHGSAKFYISDLWKVTFAQYSNVVIFGVPQMMPQLEKKLELELEDGARVIACRFPFPRWTPDHTTGEGIDTVWAYDMSAQRGRGGRPNQEWVGQKNLSETAGLQASSSETRSKLLDVE”, the protein production entry is recorded as “failed”.

Consider “MNENTKVIKGRTGDWEMVLGLEVHAQVASKSKLFSGAAVGFGAGPNEQVSLVDAAMPGMLPVLNRFCVEQAVKTGLGLRAQINLKSRFDRKNYFYPDLPQGYQISQFDQPIVGEGVVSVERDDGTTFDVRIERLHLEQDAGKSLHDQDPNATYVDLNRAGTALMEIVSKPDMRTSEEAAAYVKKLRTILVYLGTCDGDMEKGNLRADVNVSVCRPGDYEKFRATGDFKHLGTRCEIKNVNSYRYIQQAIEYEARRQIEILEDGGKVDQETRLFDPTKGETRSMRSKEEAHDYRYFPDPDLLPLVLDPAWVKSIEETLPELPDAKKARLQSQYGLSAYDAGVLIIDADRADYFEAAAKGRDAKLVANWVTNELLAKLSAAGTEFTNSPLPHTDIAQLVELIENGTISSKIAKEVFEHMWAGEGRPAEIVEKRGLVQINDTGAIEKAIDDLIAGNPDKAEAVKDKPQALGWFVGQVMKATGGKANPGTVNELLRKKLGVE”, for which the protein production result was “failed”. For “MTLTEQPQRIAILHSLYLEYFLALGTPPIASAGASTGDAMKALGEWETLKPYAGTAKIIDLGSARDLNLEAILGANPDVIVTFKGQGNLDKIYEQLEQIAPVILVDFSAPWQEQILACAEIVNKEADAQKLIKEIEDSVQSAKEKLSRLEHHHHHH”, the protein production entry was “failed”. On to “MFREFINLLFMQFKMIKAYLPVFIFFSILFPLGFIFSFGTIIQRTLSTYLISGSITFFISINSIISVAQNLALERSSGRFSLMIASGIPIQLYAISITISNGIQTLMLIPVFLVLGYFLLGVRISSALFFVLSIIGSIYMASMVGLLIGTAIRNLHAVNQWSSIIGFILSFFAPVYFPLTQIPLPFRYLAYLEPTTYVSQSTYFALVGNPISLAWFGGTVVIGFLFSFLSSLLMKKAF”, for which the protein production result is reported as “failed”. The result for “MNLAQSNREIVELLVPIIVGYMSLFISSIFVYRIGKIILRRDSISLISAIIFLLNPSTIFCLLYSPKNYGFASVGYYFVPLLYLMSYYYYLKKDWKKFTAFTVALTLTSPLSYLIAITFIVYLLIRNRIDEKSLSWSLLRENKISLVLILVSLIIGVLVIPQTLQHFSSLLIASIYPQYTSLNYIYDNVYFKLTYWFILFGVFSFLPIFSPLELIPALPYLLVGLFSSYIPYYSYGYYPYYFLALPMLIMGFIRTINLIKDDKRTMLISYVFIFLFNVALLYVILE” reads “failed”; that for “MVEYDLSVIILNYNAKRFLEECINSIYENTKEIKFEVILVDNKSTDNSAEFIKEKFTGKEDFTFIESKVNCGFAAGNNKAIEVSKGRAVLLLNPDTVVNGNVIGETYKCLMKDDKVGVAGCKVLNPDGTLQLACRRMIPTPKDAFYKIFGLSKIFKNNKKFTRYNLTYASADEFIDVDSVSGSYLMIKKEVIDKIGYLDETFFMYGEEMDWCLRARKAGYIVRYCPVGTIIHYKGESSKQLSHKATYEFYRAMWIFYKKNNKGNIFLDSIVWLGVKFLLFIALIKLAILPKNRVGSKG”, “failed”; that for “MYYVYVAGYILLAAAMQLFTGNFPVSFLAFPLNIIFAAIWLFLLWILYKEYNNLRITRFLGSSKASVLSISLFIGGCLIIGLFPQLSEPEAEMRKGISASLGCYNFMTSWIFISILLLLLSNLAMITIHACRHRKQARWRFILNHTGLWLALFAGFLGSSDTQTLRIPLYKGEPKHEAFDMNGASYYLDYDMELNSFAVEYYPNGRPSRFSANVRLGNENVLLEVNHPYSYRLGEDVYLTGYDVTKGNESNYCILQVVKQPWKYVMVAGILMMLAGAVLLFINGAKAYDKLG”, “failed”.

As to “KYTQNNFITGVRAINEFCLKSSDLEQLRKIRRRSPHEDTESFTVYLRSDVEAKSLEVWGSPEALAREKKLRKEAEIEYRERLFRNQKILREYRD”, the protein production entry is “not failed”. Take “MTAPDRSPPRYKSDLIYGLNDRPHFSAAIFAALQHVLASFVGIISPTLIFGGVLGLESELPYLISMALFVSGLGTFVQARRLGPIGSGLLCVQGTSFSFISVLLSAGFMVKGRGGDTNEILSTIFGICFVAAFIEMFLSQFIGKLRKLITPVVTGTIITLMGLSLIKVAVTDMAGGYGASDLGAASNLGLAALVLLTIVVLNRFNHPMLRLGSIVIGLTLGFVVAWMLGRVDMAAMPEVPLVSVPVPFKYGFSFDLIAFIPLAVIFLISPLEAAGDLTANSMISQQPVKGPLYIKRIKSGLLADGFNSAVAAVFNSLPMVTFAQNNGVIQLTGVASRYVAYFIAGLLVLLGLFPVIGAVLQLMPKPVLGGATLIMFGTVAVAGIKILAEAGLHRRNVLIVAISLGMGLGVAAVPEVLRELPKALHNIFESPITVGAFCAIFLNIFLPEEFLELEEDEFDPEAATLKVMQDPDMSGKANS”: the protein production result is “failed”. In the case of “MSTPAPEQMLSAWQVGIAALLILVNGALSIGLGLGLERRLAWAAVRTVVQLLLIGFVLQWVFASAHWAVVLAVIALMTLIAGHATGSRGARDYAGLRLDGTLSVFGSTWLIGAIGLVAVLQARPWYTPQYAIPIMGMILGNTLTGVGLALERMTGELIATRDQVETLLALGGTRWEAARNAARAAVRAGMTPIINQMSVVGVVSLPGMMTGQVLAGQSPLEAVRYQIVIMFLLAASSGLGTVAAVLLAYRRLFSREHQLLSARIVQRAPGVH”, the protein production result is “failed”. “MSTMTATSGRAKRPQKPITLVGVDVYVITEDGIPKFDEYGPFKIEFISNRGTKVWPGYVSPDLMLVNWYRCRFTATRPVTDKDVDAFVGELGKKHLWSAVQKLWNYGDEAGFSKAY”: the protein production entry is recorded as “failed”. Regarding “MNQTKTTDDNNNNSKPDETESTTTVPEWITETINGGSFHHVDLETGTNGWASPPGNVFSLRSNNYFTTKQKSPGGDYLLSLIAVDWLKSTTKKLDHILCRPDNRVIHALETSQSRSFIFAVNFQIPGKEHYHLVLYFATEKPIPSDSILHKFINIDDDSFRNERFKVVTNVVKGPWVVKATAGKLGAFLAGKVVKCSYYRGANYFEVDVDFSISAIYSALVRLTLGYVTNLVADVGFVVEAQTEEELPERLIGGGRVCYMELSSAFLVDDGKKMGAAEGNHSEDEI”, the protein production result is on record as “failed”. For the sequence “MYLPLLMALVVALSSCSNKMGALSSDYFTTTPQVLEAVGGKVPVTINGKFPEKYFKKNAVVEVTPVLKWEGGQVKGQPAVFQGEKVEGNDQTISYKMGGNYTMKTTFDYVPEMAKSELYLEFNAKVGKKTIAIPAVKIADGVISTSELINNTLSSANPALGDDAFQRIIKEAHNANIMFLIQQANIRSSELKTAKEFNKEVANVNDAENKKISNIEISAYASPDGGVKLNTGLAENREGNTTKLINKDLKKAKIEVPVDAKYTAQDWEGFQELVSKSNIQDKELILRVLSMYQDPEQRETEIKNISSVYKTLADEILPQLRRSRLTLNYEIIGKSDEEIANLAATDPKQLNVEEILYAATLTNDPAKKADIYTKASQQFPNDYRAFNNLGKLAYQAGDLDKAQSYVKKAESIKSAPEVNMNLGLIALAKGDKAAAESYLGKAAGAKELNETLGNLYVAQGQYERAVNAFGDTKTNSAALAQILAKDYNKAKNTLAGIATPDAYTDYLMAVLGARTNNTSMLTSSLKSAVAKNPALAKKAATDLEFAKYYTNADFMSIVK”, the protein production entry is “failed”.

On to “MPHPAERSRHGRGWFEKLAEAASNLTSSPVFYCFCLLLVFAFIVAHAVGLELTWQLLIGDIMTAVNLLLLALLKNSERRAEHAIQHKLDSIAAALLEQREGHSRQAHEELRKAIGIEDEF”, for which the protein production entry is recorded as “failed”. As to “NKELNELNIIKLTRMMYYGQLLHYLSIGLTLVMTYSCNLRCPYCYEGDIKSKGGLLTREKIETILTFASAHAQGDKKPTISVSFYGGEPLLNWKGCEYTLQRLEEMKENKEIRDYSAGFVTNGTLINEDIVDAINNYNVYSMQITLDGPKEIHDKRRIKSNGEGTFDQIIENIKLLNRRIANKNFHLALRINVDKTNYKKIPELLDFLKDEGLGGIPISYGIVRGNLPYCSSNCGVYFSGSDLQKYLPYLWKEAYRRGFEVWTRPNL”, the protein production result is on record as “failed”. In the case of “IPELKDHLRIFRPRKLTLKGYRQHWVVFKETTLSYYKSQDEAPGDPIQQLNLKGCEVVPDVNVSGQKFCIKLLVPSPEGMSEIYLRCQDEQQYARWMAGCRLASKGRTMADSSYTSEVQAILAFLSLQRT”, the protein production result is given as “not failed”. Turning to “MPEQQLADLSQEVAASGDSIAFAADFAVIVVVATVIGLLARQLGQPTIVAYILTGVVLGPVALDVVTQEGLVDVMAELGLGFLLFLLGLKMRFDDIREILAPITNVAIGQTVLQTALAFLVALLLGFATDEILVIALATVFGATPVIVKVLTDKDEITTLPGKIDVGVLIVQDIYLVVVLALFGAEQLGDAGEIATTLGVIFVMMSFIGLFSLASSRYLLPHLFERIANNKDVFLIVAIAWAFLFIAIAEGFDLSVEVGAFLAGLSLAQLPYSKELQDRITPITDFFILVFFASIGLQIESVGSLLTHWQEALIASVVLMVGNFWIMFYLIDREGFGPETSFLGSINMVQVSEFSLVVGALAFQQGYIGADVLGYLTLMALLTMTASTYIILYNHAIYERVAPWIRRISSGDGIDEGLPEYENHAVAIGYDEVTEKALPVLDEAFEEVVIIDRNTEHIAEIREAGEYESIFGDFRHKEVRKASNLKEAEFVLSSSVQREINEALLQETADDTPVFVEAERIADAHRLYEAGASYVVMPPHLAAEKLGEYLELYLTDQSVFHTRIQDDIEQIRRRASQATTRRRMASDTGVDLRTSGGDDD”, the protein production entry is “failed”. Regarding “MKSWTILLSTLCLFSCNQQENKFEKYVDPLIGTDIRIVQGKDKNSTEERGQIMPAVGVPHGMTNWVAQTQATEQKCHPPYYYFQDAIQGFRASHWMNGSCTQDYGSITIMPLSNKLEIDPVKRASTFDHTQETATPSYYSVDLNDYDIHAELTGLSRAGIMQFSFEQDGDHYIVIEPNSDEGVAFVEIDPEKKEITGYNPVHRIYQGYGKEAGFSGHFVIQLNEEIADYGVWDSTTITPGRKSAKGQKHAVGAWIKLTSDKPGKILVKVATSFTSIDNARKNLAAEIPGWNFNEVRQASSDIWNQALGQIAVKGNNEKEKVKFYSALYNAHFLPRAFSDVDGSYPRFDGDGQIMKMDHGTYYCDFSQWDTYRAVHPLFSILTPSRNGDMAHSLVLKGQQGGWLPIFPSWNSYTAAMIGDHCIAMIGDAIVKDTPGFDYEEAYTLMRKNAFEANPDSGSYRDGKGRRAMESYLKYNYVPLEDQVTEAFHRREQVSRTLEYAYDDFVLAQVAKKLGKTDDYKALIKRAENYRNVIDPETGYARGRHADGTWIEPFDPFASTSFICEGTPYHYTWYAPQDIAGLIRHMGGKERFINRLDNFFEGNYYWHGNEPGHHIAYLFAYAGEPWKTQKWVHDIINREYFTTPDGLSGNDDAGQMSSWLVFSMVGFYPVCPGMPYYVIGSPSFEESVITLENGKKFTIEAKGASEKNIYIQSATLNGQPYNKSYILHKDIMNGGILSFVMGDSPNKEWASSAGSLPPSMGL”, the protein production entry is reported as “failed”.
